Substitutions are numbered along the chain they refer to. In names and notes the source's numbering stands.
B1: F443: COI1 alanine substitution mutant at F443 (protein, UniProt O04197 1-592, looked up, variant F443A)
Coronatine-insensitive …: MEDPDIKRCKLSCVATVDDVIEQVMTYITDPKDRDSASLVCRRWFKIDSETREHVTMALCYTATPDRLSRRFPNLRSLKLKGKPRAAMFNLIPENWGGYVTPWVTEISNNLRQLKSVHFRRMIVSDLDLDRLAKARADDLETLKLDKCSGFTTDGLLSIVTHCRKIKTLLMEESSFSEKDGKWLHELAQHNTSLEVLNFYMTEFAKISPKDLETIARNCRSLVSVKVGDFEILELVGFFKAAANLEEFCGGSLNEDIGMPEKYMNLVFPRKLCRLGLSYMGPNEMPILFPFAAQIRKLDLLYALLETEDHCTLIQKCPNLEVLETRNVIGDRGLEVLAQYCKQLKRLRIERGADEQGMEDEEGLVSQRGLIALAQGCQELEYMAVYVSDITNESLESIGTYLKNLCDFRLVLLDREERITDLPLDNGVRSLLIGCKKLRRFAAYLRQGGLTDLGLSYIGQYSPNVRWMLLGYVGESDEGLMEFSRGCPNLQKLEMRGCCFSERAIAAAVTKLPSLRYLWVQGYRASMTGQDLMQMARPYWNIELIPSRRVPEVNQQGEIREMEHPAHILAYYSLAGQRTDCPTTVRVLKEPI
B2: Y444A: COI1 alanine substitution mutant at Y444 (protein)
chain: B1 Coronatine-insensitive … with A443F, Y444A
B3: F89: COI1 alanine substitution mutant at F89 (protein, UniProt O04197 1-592, looked up, variant F89A)
Coronatine-insensitive …: B1 Coronatine-insensitive … with F89A, A443F
B4: R326A: COI1 alanine substitution mutant at R326 (protein)
chain: B1 Coronatine-insensitive … with R326A, A443F
B5: E173: COI1 alanine substitution mutant at E173 (protein, UniProt O04197 1-592, looked up, variant E173A)
Coronatine-insensitive …: B1 Coronatine-insensitive … with E173A, A443F
B6: R121: COI1 alanine substitution mutant at R121 (protein, UniProt O04197 1-592, looked up, variant R121A)
Coronatine-insensitive …: B1 Coronatine-insensitive … with R121A, A443F
B7: R348: COI1 alanine substitution mutant at R348 (protein, UniProt O04197 1-592, looked up, variant R348A)
Coronatine-insensitive …: B1 Coronatine-insensitive … with R348A, A443F
B8: K492: COI1 alanine substitution mutant at K492 (protein, UniProt O04197 1-592, looked up, variant K492A)
Coronatine-insensitive …: B1 Coronatine-insensitive … with A443F, K492A
B9: D354: COI1 alanine substitution mutant at D354 (protein, UniProt O04197 1-592, looked up, variant D354A)
Coronatine-insensitive …: B1 Coronatine-insensitive … with D354A, A443F
B10: Y302A: COI1 alanine substitution mutant at Y302 (protein)
chain: B1 Coronatine-insensitive … with Y302A, A443F
B11: L469: COI1 alanine substitution mutant at L469 (protein, UniProt O04197 1-592, looked up, variant L469A)
Coronatine-insensitive …: B1 Coronatine-insensitive … with A443F, L469A
B12: G357: COI1 alanine substitution mutant at G357 (protein, UniProt O04197 1-592, looked up, variant G357A)
Coronatine-insensitive …: B1 Coronatine-insensitive … with G357A, A443F
B13: L470: COI1 alanine substitution mutant at L470 (protein, UniProt O04197 1-592, looked up, variant L470A)
Coronatine-insensitive …: B1 Coronatine-insensitive … with A443F, L470A
B14: L91: COI1 alanine substitution mutant at L91 (protein, UniProt O04197 1-592, looked up, variant L91A)
Coronatine-insensitive …: B1 Coronatine-insensitive … with L91A, A443F
B15: R351: COI1 alanine substitution mutant at R351 (protein, UniProt O04197 1-592, looked up, variant R351A)
Coronatine-insensitive …: B1 Coronatine-insensitive … with R351A, A443F
B16: M88: COI1 alanine substitution mutant at M88 (protein, UniProt O04197 1-592, looked up, variant M88A)
Coronatine-insensitive …: B1 Coronatine-insensitive … with M88A, A443F
B17: Q491: COI1 alanine substitution mutant at Q491 (protein, UniProt O04197 1-592, looked up, variant Q491A)
Coronatine-insensitive …: B1 Coronatine-insensitive … with A443F, Q491A
B18: Y472: COI1 alanine substitution mutant at Y472 (protein, UniProt O04197 1-592, looked up, variant Y472A)
Coronatine-insensitive …: B1 Coronatine-insensitive … with A443F, Y472A
B19: R516: COI1 alanine substitution mutant at R516 (protein, UniProt O04197 1-592, looked up, variant R516A)
Coronatine-insensitive …: B1 Coronatine-insensitive … with A443F, R516A
B20: COI1A86V: COI1 mutant, alanine 86 substituted with valine (protein)
chain: B1 Coronatine-insensitive … with A86V, A443F
modifications: left off: small tags and cut ends
notes: COI1 mutant, alanine 86 substituted with valine
B21: A384D: COI1 substitution mutant at A384 (protein)
chain: B1 Coronatine-insensitive … with A384D, A443F
B22: A384C: COI1 substitution mutant at A384 (protein)
chain: B1 Coronatine-insensitive … with A384C, A443F
B23: COI1A86I: COI1 mutant, alanine 86 substituted with isoleucine (protein)
chain: B1 Coronatine-insensitive … with A86I, A443F
modifications: left off: small tags and cut ends
notes: COI1 mutant, alanine 86 substituted with isoleucine
B24: COI1A384I: COI1 mutant, alanine 384 substituted with isoleucine (protein)
chain: B1 Coronatine-insensitive … with A384I, A443F
modifications: left off: small tags and cut ends
notes: COI1 mutant, alanine 384 substituted with isoleucine
B25: COI1A384S: COI1 mutant, alanine 384 substituted with serine (protein)
chain: B1 Coronatine-insensitive … with A384S, A443F
modifications: left off: small tags and cut ends
notes: COI1 mutant, alanine 384 substituted with serine
B26: R85A: COI1 alanine substitution mutant at R85 (protein)
chain: B1 Coronatine-insensitive … with R85A, A443F

What follows are molecules tested on COI1-JAZ9 interaction (assay: Y2H assays on plates for protein-protein interaction). Details: 10 μM COR, yeast.
Assay type: cell-based, Arabidopsis
Procedure: (§1) Yeast EGY48 strain carrying the p8Op:LacZ reporter plasmid was co-transformed with pGilda:COI1 (or COI1 mutants) and pB42AD:JAZ9 (or other JAZs) (Clontech). Colonies were selected on SD minimal plates (BD Biosciences) supplemented with the—uracil (U)/-tryptophan (W)/-histidine (H) amino acid drop out solution (Clontech). Yeast colonies were cultured overnight in liquid SD-UWH medium, harvested, washed twice in sterile water, and the absorbance (OD600) of the cultures was adjusted to 0.2 in liquid SD galactose/raffinose-UWH medium (BD Biosciences).
For Y2H assays on plates, 10-μL culture was spotted onto SD galactose/raffinose-UWH plates with 80 μg/mL X-gal and 10 μM COR (Sigma-Aldrich). Blue color indicated protein-protein interactions after 5-7 days of incubation at 30° C.

Row | Molecule | COR-dependent COI1-JAZ9 interaction
1 | B1 | reduced
2 | B2 | disrupted
3 | B3 | reduced
4 | B4 | disrupted
5 | B5 | reduced
6 | B6 | reduced
7 | B7 | reduced
8 | B8 | reduced
9 | B9 | reduced
10 | B10 | disrupted
11 | B11 | reduced
12 | B12 | reduced
13 | B13 | reduced
14 | B14 | reduced
15 | B15 | reduced
16 | B16 | reduced
17 | B17 | reduced
18 | B18 | reduced
19 | B19 | reduced

Same assay, conditions: 10 μM COR, yeast, listed as R326

Row | Molecule | COR-dependent COI1-JAZ9 interaction
20 | B4 | reduced

Same assay, conditions: 10 μM COR, yeast, listed as Y302

Row | Molecule | COR-dependent COI1-JAZ9 interaction
21 | B10 | reduced

Same assay, conditions: 10 μM COR, yeast, listed as Y444

Row | Molecule | COR-dependent COI1-JAZ9 interaction
22 | B2 | reduced

The molecules below were run on COI1-JAZ9 interaction (assay: Quantitative liquid Y2H assays (Beta-Glo, RLU)). Details: liquid Y2H, 1 μM COR, yeast.
Assay type: cell-based, Arabidopsis
Procedure: as §1
For liquid Y2H assays, cultures were supplemented with designated concentrations of JA-Ile (10 or 30 μM), COR (1 μM), or DMSO. After 16-h incubation with ligands, the liquid cultures were processed through the Beta-Glo Assay system (Promega) for detecting the β-galactosidase activity. […] Protein expression in yeast was detected using anti-LexA antibody (1:5,000; Upstate Biotechnology) for detection of COI1 expression from pGilda vector and anti-HA (1:5,000; Roche Life Science) antibody for detection of JAZ9 expression in pB42AD vector.

Row | Molecule | COR-dependent COI1-JAZ9 interaction
23 | B20 | reduced
24 | B21 | completely disrupted
25 | B22 | reduced
26 | B23 | reduced
27 | B24 | disrupted

Same assay, conditions: liquid Y2H, 10 or 30 μM JA-Ile, yeast

Row | Molecule | JA-Ile-dependent COI1-JAZ9 interaction
28 | B20 | abolished
29 | B21 | completely disrupted
30 | B22 | reduced
31 | B23 | abolished
32 | B25 | reduced
33 | B24 | disrupted

Same assay, conditions: liquid Y2H, yeast

Row | Molecule | differential effect on JA-Ile-dependent vs COR-dependent COI1-JAZ9 interaction
34 | B26 | affect JAIle-dependent interaction more than COR-dependent interaction

Same assay, conditions: yeast; JA-Ile is a mixture of active and inactive isomers, COR pure

Row | Molecule | concentrations equivalent in promoting the COI1-JAZ9 interaction [µM]
35 | CC/C=C\C[C@H]1C(=O)CC[C@@H]1CC(=O)N[C@H](C(=O)O)[C@@H](C)CC [JA-Ile, jasmonoyl-L-isoleucine, reference compound] | 10

From patent US10584350B2, “Structurally modified COI1” (Board of Trustees of Michigan State University, priority 2016, dated 2020)
